Key:
human TSLP factor = human TSLP factor (human, UniProt Q969D9 29-159); experiment: cell-based or functional assay
[1] = molecular target: Human TSLP antigen protein (human, UniProt Q969D9 29-159); experiment: blocking ELISA: human TSLP coated, antibody dilutions with 0.02 ug/mL biotinylated TSLPR, SA-HRP, OD450; blocked partner: biotinylated TSLPR protein
Procedure: The above purified bivalent humanized antibodies were subjected to ELISA to detect blocking activity. […] After washing 5 times with PBST, 100 uL of TMB color-substrate solution was added and colour development at 37° C. for 10 min. The reaction was terminated by adding 2M H₂SO₄ 50 uL/well, and the absorption value was measured at 450 nm on an microplate reader.

TSLP-Biotin protein = TSLP-Biotin protein (UniProt Q969D9 29-159, biotinylated (site not stated)); experiment: flow cytometry blocking assay: antibody diluted 2-fold from 20 ug/mL with TSLP-Biotin on HEK293F/TSLPR transient cells, SA-PE, MFI; blocked partner: TSLPR on the cells
Procedure: The above 31 purified antibodies were again subjected to flow cytometry blocking activity assay. […] Centrifuged again and discard supernatant, add 200 uL PBS per well to resuspend cells, flow cytometry was performed to detect PE signal of sample.

TSLP-Fc antigen = experiment: BLI (Fortebio): antibody captured on Protein A probe, TSLP-Fc antigen 2-fold from 20 nM, global fit
Procedure: The binding kinetics of 14 blocking TSLP nanobodies were measured by Bio-layer interferometry (BLI). For kinetic measurements, candidate antibodies were diluted to 5 ug/mL in PBST buffer, TSLP-Fc antigen diluted in PBST buffer in 2-fold gradients in six concentration gradients (2-fold gradient dilution from 20 nM), and set the instrument operating conditions: Temperature 30° C., Shake speed 1000 rpm. Antibodies were captured using a probe already encapsulated with Protein A, capture time 60 s; Binding of gradient diluted antigen, binding time 240 s; dissociation time 300 s; 10 mM glycine (pH 1.7) regenerated 2 times for 5 s each. Fortebio Analysis version 9.0 was used to perform the analysis, Global mode was fitted and the binding rate (Kon), dissociation rate (Kdis) and dissociation constant KD were calculated.

IC50 of inhibition of hTSLP-induced pSTAT5 (PE MFI, flow cytometry) in BaF3/TSLPR-IL7R cells (human TSLP factor)	IC50 [1]	IC50 (read off the curve) (TSLP-Biotin protein)	Kd (TSLP-Fc antigen)	koff (TSLP-Fc antigen)	kon (TSLP-Fc antigen)	Binder
0.472 ug/ml	0.0824 µg/mL					Bi-HuNb10-63 (VHH, also called humanized bivalent antibody; bivalent single domain antibody) EVQLLESGGGLVQPGGSLRLSCTASGFTLDDSDMGWYRQAPGDECELVSTISSLGGTYYADSVKGRFTISHDNAKNTVYLQMNSLKPHDTAVYYCAPGTDRYSDCPNEYSVWGQGTLVTVSSGGGGSGGGGSGGGGSGGGGSEVQLLESGGGLVQPGGSLRLSCTASGFTLDDSDMGWYRQAPGDECELVSTISSLGGTYYADSVKGRFTISHDNAKNTVYLQMNSLKPHDTAVYYCAPGTDRYSDCPNEYSVWGQGTLVTVSS
0.0797 ug/ml	0.0759 µg/mL					Bi-HuNb5-31 (VHH, also called humanized bivalent antibody; bivalent single domain antibody) EVQLLESGGGLVQPGGSLRLSCTASGFTSGGSDMGWYRQAPGNECDLVSYISSDGSTYYADSVKGRFTISQDNAKNTVYLQMNSLKPEDTAVYYCAATDYGLGPPPSSTGQCYGMDYWGKGTLVTVSSGGGGSGGGGSGGGGSGGGGSEVQLLESGGGLVQPGGSLRLSCTASGFTSGGSDMGWYRQAPGNECDLVSYISSDGSTYYADSVKGRFTISQDNAKNTVYLQMNSLKPEDTAVYYCAATDYGLGPPPSSTGQCYGMDYWGKGTLVTVSS
0.0198 ug/ml	0.141 µg/mL					Bi-HuNb7-54 (VHH, also called humanized bivalent antibody; bivalent single domain antibody) EVQLLESGGGLVQPGETLRLSCTASGFTFDDSDMGWYRQAPGNECELVSIISSDGMTYYADSVKGRFTISQDNAKNTVYLQMNSLKPEDTAVYYCAATKYSSDYDVAEDWRRGVCGDMDYWGKGTLVTVSSGGGGSGGGGSGGGGSGGGGSEVQLLESGGGLVQPGETLRLSCTASGFTFDDSDMGWYRQAPGNECELVSIISSDGMTYYADSVKGRFTISQDNAKNTVYLQMNSLKPEDTAVYYCAATKYSSDYDVAEDWRRGVCGDMDYWGKGTLVTVSS
		~0.2 µg/mL	226 pM	0.000588 s⁻¹	2.61e+06 M⁻¹ s⁻¹	Nb7-54 (VHH, Camel nanobody before humanization) VHH: QVQLQESGGGSVQAGETLRLSCTASGFTFDDSDMGWYRQAPGNECELVSIISSDGMTYYADSVKGRFTISQDNAKNTVYLQMNSLKPEDTAVYYCAATKYSSDYDVAEDWRRGVCGDMDYWGKGTQVTVSS
			115 pM	0.000231 s⁻¹	2.02e+06 M⁻¹ s⁻¹	Nb5-31 (VHH, Camel nanobody before humanization) VHH: QVQLQESGGGSVQAGGSLRLSCTASGFTSGGSDMGWYRQAPGNECDLVSYISSDGSTYYADSVKGRFTISQDNAKNTVYLQMNSLKPEDTAVYYCAATDYGLGPPPSSTGQCYGMDYWGKGTQVTVSS
			94.5 pM	0.000263 s⁻¹	2.78e+06 M⁻¹ s⁻¹	Nb10-63 (VHH, Camel nanobody before humanization) VHH: QVQLQESGGGSVQAGGSLRLSCTASGFTLDDSDMGWYRQAPGDECELVSTISSLGGTYYADSVKGRFTISHDNAKNTVYLQMNSLKPHDTAVYYCAPGTDRYSDCPNEYSVWGQGTQVTVSS
